Assay [1] concerns the target peptide 4 WT expressed by HEK293T cells (human). Briefly: western blot, HEK293T lysate, antibody 1 ug/ml. For orientation: Immunoblotting shows a protein as a band on a membrane.
In assay [2] the target is TRIM variant expressed by HEK293T cells. Briefly: western blot, relative to WT.
For assay [3], the target named is peptide 4 variant D369A expressed by HEK293T cells (human). Kind of assay: western blot, relative to WT.
The target in assay [4] is peptide 4 variant W370A expressed by HEK293T cells (human). Kind of assay: western blot, relative to WT.
Assay [5] concerns the target peptide 4 variant V364A expressed by HEK293T cells (human). Briefly: western blot, relative to WT.
The target in assay [6] is peptide 4 variant E363A expressed by HEK293T cells (human). Briefly: western blot, relative to WT.
Assay [7] addresses peptide 4 variant G373A expressed by HEK293T cells (human). Briefly: western blot, relative to WT.
Assay [8] has as its target peptide 4 variant I372A expressed by HEK293T cells (human). Briefly: western blot, relative to WT.
Assay [9] has as its target peptide 4 WT expressed by HEK293T cells (human). Kind of assay: western blot, relative to WT.
The target in assay [10] is peptide 4 variant A371G expressed by HEK293T cells (human). Briefly: western blot, relative to WT.
Assay [11] addresses peptide 4 variant V362A expressed by HEK293T cells (human). Kind of assay: western blot, relative to WT.
In assay [12] the target is peptide 4 variant G365A expressed by HEK293T cells (human). Kind of assay: western blot, relative to WT.
Assay [13] has as its target peptide 4 variant V374A expressed by HEK293T cells (human). Kind of assay: western blot, relative to WT.
The target in assay [14] is peptide 4 variant D366A expressed by HEK293T cells (human). Kind of assay: western blot, relative to WT.
The target in assay [15] is peptide 4 variant R367A expressed by HEK293T cells (human). Kind of assay: western blot, relative to WT.
The target of assay [16] is peptide 4 variant C375A expressed by HEK293T cells (human). Briefly: western blot, relative to WT.
Assay [17] has as its target peptide 4 variant T368A expressed by HEK293T cells (human). Kind of assay: western blot, relative to WT.
For assay [18], the target named is peptide 4 variant E361A expressed by HEK293T cells (human). Kind of assay: western blot, relative to WT.
Another assay addresses T1, hBTN1A1 ICD (human, UniProt Q13410 270-526).
T1 sequence: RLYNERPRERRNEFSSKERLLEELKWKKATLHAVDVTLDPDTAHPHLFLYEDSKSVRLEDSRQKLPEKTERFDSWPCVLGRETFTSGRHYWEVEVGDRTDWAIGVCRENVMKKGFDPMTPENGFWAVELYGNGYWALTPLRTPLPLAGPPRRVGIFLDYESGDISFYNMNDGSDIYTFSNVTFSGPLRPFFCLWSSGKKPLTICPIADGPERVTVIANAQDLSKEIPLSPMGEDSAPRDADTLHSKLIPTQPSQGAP
Briefly: ELISA clone screen, STCube. Background: In an ELISA, binding on a coated surface is turned into a signal by an enzyme label.

The next assay has as its target T2, BTN1A1 Peptide 4 (human).
T2 construct: also called BTN1A1-pep4- WT; Pep4
T2 peptide: EVEVGDRTDWAIGVC
Kind of assay: ELISA clone screen, STCube.

In the next assay the target is T3, denatured hBTN1A1 ICD (human, UniProt Q13410 270-526).
T3 construct: Same protein as hBTN1A1 ICD, denatured before the ELISA; also called hBTN1A1 ICD denatured; Denatured ICD
T3 sequence: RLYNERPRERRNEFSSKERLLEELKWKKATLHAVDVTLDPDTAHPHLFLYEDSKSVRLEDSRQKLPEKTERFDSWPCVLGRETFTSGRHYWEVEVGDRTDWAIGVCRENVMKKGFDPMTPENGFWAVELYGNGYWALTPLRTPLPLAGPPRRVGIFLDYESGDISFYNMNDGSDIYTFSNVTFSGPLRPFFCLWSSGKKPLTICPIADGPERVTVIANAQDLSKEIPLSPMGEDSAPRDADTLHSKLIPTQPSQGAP
Briefly: ELISA clone screen, STCube.

The target of another assay is T4, mouse BTN1A1 (mouse, UniProt Q62556 27-524, limits assumed).
T4 construct: also called mBTN1A1
T4 sequence (looked up): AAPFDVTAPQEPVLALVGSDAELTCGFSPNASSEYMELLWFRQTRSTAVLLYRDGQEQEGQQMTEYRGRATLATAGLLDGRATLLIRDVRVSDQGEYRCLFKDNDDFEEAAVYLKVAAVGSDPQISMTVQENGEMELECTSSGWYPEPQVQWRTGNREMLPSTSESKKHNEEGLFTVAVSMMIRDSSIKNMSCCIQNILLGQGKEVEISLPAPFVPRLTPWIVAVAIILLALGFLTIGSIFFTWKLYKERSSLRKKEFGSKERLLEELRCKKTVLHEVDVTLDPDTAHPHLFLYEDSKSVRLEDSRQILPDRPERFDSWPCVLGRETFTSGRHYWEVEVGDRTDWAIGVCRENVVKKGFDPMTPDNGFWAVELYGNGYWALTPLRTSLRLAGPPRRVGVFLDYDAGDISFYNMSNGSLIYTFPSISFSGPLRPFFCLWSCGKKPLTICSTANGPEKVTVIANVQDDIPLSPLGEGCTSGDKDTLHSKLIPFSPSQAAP
Kind of assay: immunohistochemistry, 2 ug/mL.
From the text: […]

B1: STC43H11-1 (antibody, V domains shown)
VH: QSLEESGGRLVTPGGSLTLTCTVSGIDLSSYAMGWVRQAPGEGLEWIGSIGTGGGTGYASWAKGRFTISKTSTTVDLKMTSLTASDTATYFCATSNLWGPGTLVTVSS
VL: QVLTQTASPVSAAVGGTVTINCQASQSVYNNNRCSWFQQKPGQPPKRLIYHTSTLDSGVPSRFKGSGSGTQFTLTISDVQCDDAATYYCLGNYDCSRADCAAFGGGTEVVVK
notes: From immunized New Zealand rabbits; IgG heavy chain and Kappa light chain; also called clone #43H11; Clone 43H11
In turn, B1 returned an STC43H11-1 Adj. Vol. (Int) in assay [1] of 4.02e+06. The % binding Rel. Quant. was -0.213% in assay [2]; 0.178% in assay [3]; 8.25% in [4]; 26.8% in [5]; 67.6% in assay [6]; 2.25% in assay [7]. Further, the % binding Rel. Quant. stood at 0.127% in assay [8]; 100% in assay [9]; 9.41% in assay [10]; 247% in assay [11]; 86.8% in assay [12]; 49.6% in assay [13]. In addition, the % binding Rel. Quant. is -8.55% in assay [14]; 50.1% in assay [15]; 277% in [16]; 10.4% in assay [17]; 48.3% in assay [18]. Moreover, the ELISA signal with hBTN1A1 ICD was found to be 1.98; with BTN1A1 Peptide 4, 0.945; in the assay with denatured hBTN1A1 ICD, 0.111. In the assay with mouse BTN1A1, the binding result was “binds”.

The values are drawn from patent US20250189530A1 (STCUBE, published 2025).
